The source of these data is publication PMC5404189.

This test addresses extracellular fibrinogen binding protein (Staphylococcus aureus) (UniProt A6QG59). Briefly: ELISA. (In general: ELISA stands for enzyme-linked immunosorbent assay.)
Chain of UniProt A6QG59 (A6QG59 30-165): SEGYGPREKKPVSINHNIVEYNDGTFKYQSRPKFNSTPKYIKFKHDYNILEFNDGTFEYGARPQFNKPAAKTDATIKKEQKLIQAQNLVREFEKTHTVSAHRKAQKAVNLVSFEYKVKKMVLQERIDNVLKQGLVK

human complement C3 (natural protein) returned a reBC at 10% plasma greater than 80%.
